Experimental data reported in PMC9107400.

How the values were obtained:
[1] = molecular target: AR65Q (human) (UniProt P10275); experiment: co-IP; cell-free ('in vitro pull-down'): FLAG-SMAD4 (TNT wheat germ) and GST-AR constructs (E. coli S30) in vitro translated, equal amounts mixed overnight at 4 °C, captured with anti-GST antibody on protein G Dynabeads, Western blot with anti-FLAG
[2] = molecular target: N-terminal FLAG-tagged SMAD4 (UniProt Q13485); experiment: co-IP; HEK293T cells transfected with FLAG-tagged SMAD4 (or its deletion constructs) and AR constructs, treated with DHT 10 nM and BMP7 50 ng/mL for 12 h; nuclear extracts incubated overnight at 4 °C with anti-FLAG or anti-AR antibody (IgG isotype as control) on protein G Dynabeads; Western blot for AR and SMAD4

binding compared to wild type [1] [%] | binding compared to wild type [2] [%] | Substance
70 |  | FLAG-tagged SMAD4, in vitro translated (from UniProt Q13485 1-552) (natural protein)
 | 50 | AR100Q (from UniProt P10275 1-920) (natural protein)
